Data as given in patent CN113321729A (DONGDA BIOTECHNOLOGY SUZHOU CO LTD, dated 2021).

T1: 携带组氨酸标签的人IL-12(IL-12-His) (human, UniProt P29459 23-219; P29460 23-328)
T1 construct: Recombinant His-tagged human IL-12 made in mammalian cells; Coated on the plate in the ELISA; also called IL-12蛋白; biotin标记的IL-12-His
T1 sequence (looked up) 1: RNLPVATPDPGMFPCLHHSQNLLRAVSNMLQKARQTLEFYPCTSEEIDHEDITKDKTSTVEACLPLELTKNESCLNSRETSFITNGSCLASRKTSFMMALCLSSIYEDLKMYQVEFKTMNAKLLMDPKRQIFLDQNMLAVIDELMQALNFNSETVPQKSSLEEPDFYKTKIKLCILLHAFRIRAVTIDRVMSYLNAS
T1 sequence (looked up) 2: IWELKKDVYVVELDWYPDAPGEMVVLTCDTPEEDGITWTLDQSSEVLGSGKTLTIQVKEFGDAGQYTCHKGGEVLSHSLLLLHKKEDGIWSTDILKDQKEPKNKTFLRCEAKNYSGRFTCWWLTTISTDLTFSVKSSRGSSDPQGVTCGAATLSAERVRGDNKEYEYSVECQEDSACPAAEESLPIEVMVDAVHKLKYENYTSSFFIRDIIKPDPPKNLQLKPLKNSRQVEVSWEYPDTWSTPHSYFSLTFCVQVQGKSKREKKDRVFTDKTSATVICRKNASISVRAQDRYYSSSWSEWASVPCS

B1: hu2A3 (antibody, V domains shown)
VH: QVQLVQSGAEVKKPGASVKVSCKASGFNIKDTYMHWVRQAPGQRLEWIGKIDPANGNTKYDPKFQGRATITADTSASTAYMELSSLRSEDTAVYYCSRRFYDSGFYYYFYIWGQGTLVTVSS
VL: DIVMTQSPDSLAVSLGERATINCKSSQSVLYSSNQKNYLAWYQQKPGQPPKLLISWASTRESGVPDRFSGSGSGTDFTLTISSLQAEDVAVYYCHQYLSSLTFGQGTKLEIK
notes: also called 2A3人源化抗体; 人源化抗体2A3
B2: hu11B4 (antibody, V domains shown)
VH: QVQLVQSGAEVKKPGASVKVSCKASGYAFTDYKMHWVRQAPGQRLEWIGHIYTYNGGADYNQKFKNRATLTVDISASTAYMELSSLRSEDTAVYYCATSGPFAYWGQGTLVTVSS
VL: EIVMTQSPATLSVSPGERATLSCKASQNVGTNVAWYQQKPGQAPRALIYSASKRFSGIPARFSGSGSGTEFTLTISSLQSEDFAVYYCLQYNNFPFTFGQGTKLEIK
notes: also called 11B4人源化抗体; 人源化抗体11B4
B3: Ustekinumab (antibody, V domains shown)
VH: EVQLVQSGAEVKKPGESLKISCKGSGYSFTTYWLGWVRQMPGKGLDWIGIMSPVDSDIRYSPSFQGQVTMSVDKSITTAYLQWNSLKASDTAMYYCARRRPGQGYFDFWGQGTLVTVSS
VL: DIQMTQSPSSLSASVGDRVTITCRASQGISSWLAWYQQKPEKAPKSLIYAASSLQSGVPSRFSGSGSGTDFTLTISSLQPEDFATYYCQQYNIYPYTFGQGTKLEIK
B4: 2A3 (antibody, V domains shown)
VH: EVQLQQSGAELVKPGASVKLSCTASGFNIKDTYMHWLKQRPEQGLEWIGKIDPANGNTKYDPKFQGKATITADTSSNTAYLQLSSLTSEDTAVYYCSRRFYDSGFYYYFYIWGAGTTVTVSS
VL: NIMMTQSPSSLAVSAGEKVTMYCKSSQSVLYSSNQKNYLAWYQQKPGQSPKLLISWASTRESGVPDRFTGSGSGTDFTLTISSVQAEDLAVYYCHQYLSSLTFGAGTKLELK
notes: Mouse hybridoma antibody purified on Protein A; also called IL-12杂交瘤抗体
B5: 1B6 (antibody, V domains shown)
VH: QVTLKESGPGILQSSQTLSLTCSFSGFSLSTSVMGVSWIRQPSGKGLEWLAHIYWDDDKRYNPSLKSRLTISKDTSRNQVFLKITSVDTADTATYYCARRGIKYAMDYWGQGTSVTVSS
VL: NIVMTQTPKFLLVSAGDRVTITCKASQSVSNDVAWYQQKPGQSPKLLIYYASNRYTGVPDRFTGSGYGTDFTFTISTVQAEDLAVYFCQQDYTSPWTFGGGTKLEIK
notes: as for B4
B6: 9E2 (antibody, V domains shown)
VH: EVQLQQSGAELVRPGASVKLSCTASGVNIKDYYMHWVKQRPEKGLEWIGMIDPEDGDTEYAPRFQAKATMTADTSSNTAYLQLNSLTSEDTAVYYCTITTVVRYFDVWGTGTTVRVSS
VL: DLVLSQSPATLSVTPGDSVSLSCRASQSISINLHWYQQKSHESPRLLIKYASQSISGIPSRFSGSGSGTDFTLSINSVETEDFGMYFCQQSNSWPFTFGGGTKLEIK
notes: as for B4
B7: 19A4 (antibody, V domains shown)
VH: EVQLVESGGGLVKPGGSLQVSCAASGFSFSSYGMSWVRQTPDKRLEWVATIGSGGLYTYSPDTVKGRFSISRDDAKNTLYLQMNSLTSEDTAMYYCATSGPFAYWGQGTLVTVSA
VL: DIKMTQSPSSMYASLGERVTITCKASQDINRNLNWFQQKPGNSPKTLIIRTNRLVDGVPSRFSGSGSGQVYSLTVSSLEFGDMGIYFCLQFDEFPWTFGGGTTLEIK
notes: as for B4

Molecular target: T1, 携带组氨酸标签的人IL-12(IL-12-His)
Test: FACS, blocking of biotin-labelled IL-12-His binding to CHO-IL-12R cells

| IC50 [mg/L] | Binder |
| --- | --- |
| 0.398 | B1 |
| 0.323 | B2 |
| 0.224 | B3 |

Molecular target: T1, 携带组氨酸标签的人IL-12(IL-12-His)
Test: ELISA, IL-12-His coated on plate

| EC50 [mg/L] | Binder |
| --- | --- |
| 0.0571 | B1 |
| 0.0517 | B2 |
| 0.0718 | B3 |

Molecular target: T1, 携带组氨酸标签的人IL-12(IL-12-His)
Test: ELISA, IL-12-His coated on plate
Remark: another data set of the same source

| binding result | Binder |
| --- | --- |
| binds | B4 |
| binds | B5 |
| binds | B6 |
| binds | B7 |
